Assay results from US20250312376A1 (FLAGSHIP PIONEERING INNOVATIONS VI, published 2025).

Biological target: T1, BCMA on BCMA-positive tumor cell lines (H929, RPMI-8226) (UniProt Q02223 1-184, limits assumed)
T1 sequence (looked up): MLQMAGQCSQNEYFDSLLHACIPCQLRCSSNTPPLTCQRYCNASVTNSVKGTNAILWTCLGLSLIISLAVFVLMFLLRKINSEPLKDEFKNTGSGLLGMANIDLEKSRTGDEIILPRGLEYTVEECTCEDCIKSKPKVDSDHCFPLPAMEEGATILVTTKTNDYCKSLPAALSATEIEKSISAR
Experiment: cell-based or functional assay

B1: BCMA-CAR fusion polypeptide (receptor)
chain: QVQLVQSGAEVKKPGASVKVSCKASGYSFPDYYINWVRQAPGQGLEWMGWIYFASGNSEYNQKFTGRVTMTRDTSSSTAYMELSSLRSEDTAVYFCASLYDYDWYFDVWGQGTMVTVSSGGGGSGGGGSGGGGSDIVMTQTPLSLSVTPGEPASISCKSSQSLVHSNGNTYLHWYLQKPGQSPQLLIYKVSNRFSGVPDRFSGSGSGADFTLKISRVEAEDVGVYYCAETSHVPWTFGQGTKLEIKTTTPAPRPPTPAPTIASQPLSLRPEACRPAAGGAVHTRGLDFACDIYIWAPLAGTCGVLLLSLVITLYCRSKRSRLLHSDYMNMTPRRPGPTRKHYQPYAPPRDFAAYRSRVKFSRSADAPAYQQGQNQLYNELNLGRREEYDVLDKRRGRDPEMGGKPRRKNPQEGLYNELQKDKMAEAYSEIGMKGERRRGKGHDGLYQGLSTATKDTYDALHMQALPPR
% killing at a 0.625 ratio of effector T cells to tumor cells (one donor): > 50%
